Measurements taken from the nanobody polyreactivity screen of Harvey et al. (2022).

Experiment: yeast display, Sf9 membrane polyspecificity reagent, FACS + sequencing; frameworks hold sequencing errors
Method in brief: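 A synthetic nanobody library was expressed on Saccharomyces cerevisiae BJ5465 by galactose induction for 36–48 hours. The library was stained for 1 hour at 4 °C with 10% biotinylated, detergent-solubilized Sf9 membrane reagent and enriched with streptavidin microbeads before FACS. Low and high (top ~1%) gates were set on anti-HA fluorescence for expression and streptavidin fluorescence for reagent binding, and each polyreactivity label reflects the gate of origin.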

Sequence | polyreactivity (PSR sort gate)
KVQLVESGGGLVQAGASLRLSCAASGSIFATYAMGWYREEPGKERELVAAITSSDGSTNYADSVKGRFTISRDYAKNTVYLQMNSLKPEDTAVYYCATVSPDRTDSDSGFDAGYDYWGQGTQVTLSS | low polyreactivity
KVQLVESGGGLVQAGGSLRLSCAASGFTFYGNAMGWYRQAPGKERELVATIRYRGGRTYYADSVKGRFTISRDNAKNTVYLQMNSLKPEDTAVYYCAARSVFLMWGQGTQVTVSS | high polyreactivity
KVQLVESGGGLVQAGGSLRLSCAASGITSSYSAMVWYRQAPGKERELVAAITSSGGSTYYADSVKGRFTISRDNAKNTVYLQMNSLKPEVTAVYYCAARIGQYKAHTRINQYYIRYYWGQGTQVSVSS | low polyreactivity
KVQLVESGGGLVQAGGSLRLSCAASGLIFYDNMGWYRQAPGKERELVAAISSSGGSTSYADSVKGRFTISRDNAKITVYLQMNSLKPEDTAVYYFAADSYPAYLGFVGFDYWGQGTQVTVSS | low polyreactivity
KVQLVESGGGLVQAGGSLRLSCAASGLILWYYAMGWAIQAPGKERELVAAISRYGASTYYADSVKGRFTISRDNAKNTDYLQLNSLKPEDTAVYYCATGSSRYRHQRDYLGQGTQVTVSS | high polyreactivity
KVQLVESGGGLVQAGGSLRLSCAASGRIFYSNVMGWYRQATGKERELVAAISGRTGGTYYADSVKGRFTISRDNAKNTVYLQMNSLKPEDTAVYYCAARFIYYYGSGPDDYWGQGTQVTVSS | low polyreactivity
KVQLVESGGGLVQAGGSLRLSCAASGRTFESYAMGWYRQAPGKERELVAAITWSGGDTYYADSVKGRFTISRDNAKNTVYLQMNSLKPEDTAVYYCAKEQGLYSVSPYDYWGLGTQVTVSS | low polyreactivity
KVQLVESGGGLVQAGGSLRLSCAASGSIFSFYTKGWYRQAPGKERELVAAINWSGSRTYYADSVKGRFTISRDNAKNTVYLQMNSLKPVDTAVYYCAAYLWFYVRYEYWGQGTQVTVSS | high polyreactivity
KVQLVESGGGLVQAGGSLRLSCAASGSIFWFYAMGWYRQAPGKEREFVATISRSCGSTYYADSVKGRFTISRDNAKNTDYLQMNSLKPEDTAVYYCIARGPRSHRYDYWGQGTQVNVSS | high polyreactivity
KVQLVESGGGLVQAGGSLRLSCAASGSTFYYYAMGWYSQAPGKERELVAAITSSTGSTYYADSVKGRFTISRDNAKNTVYLQMNSLKPVDTAVYYCAATDPYAYYWGQGTKVTVSS | high polyreactivity
KVQLVESGGGLVQAGGSLRLSCAASGSTISGYAMGWYRQAPGKERELVAAITIGGGTYYADSVKGRFPISRDNAKNTVYLQMNSLKPEDTGVYYCNAYRRKLWYPTGMYWGQGTQVTVSW | high polyreactivity
KVQLVESGGGLVQEGGSLPLSCAASGRTFDYNTMGWYRQAPGKERELVAAISSRGDSTYYADSVKGLFTISRDKAKNTVYLQMNSLNPEDTAVYYCAARYYPGRGFGYGYWGQGTQVTVSS | high polyreactivity
KVQLVESGGGLVQPGGSLRLSCASSGQTFTTNEMGWNRQAHGKERDLLAAISRRGSRTYYADSVKGRFTISRDNAKNSVFLQMNSLKPEDTAVYYCNALTGSFKTYSFDYWGQGTQVTVSS | high polyreactivity
KVQLVESGGGLVQSGVSLRLSCAASGYTFEYNAMGWYIQAPGKEREFVSTITASGDSTYYAVSVKGRFTMSRDNAKNTVYFQMNSLKPEDTAVYYCAVDCAYLDDYSFTWDDYWGQGTQVTVSS | low polyreactivity
KVQLVESVGGLVQAGGSLRLSCAASGFTFCRNTMGWYRQAPGKEREFVAAITVTGGSTYYADSVKGRFTISRDNAKNTVYLQMNSLKPEDTAVYYCAAGWTSAYVNYDYWGQGTQVTVSS | low polyreactivity
KVQLVETGGGLVQAGGSLRLSCAASGRTFWGYAKGWYRQAPGKEREFVAAISCGGRTNYADSVKGRFTISRDNAKNTVYLQLNSLKPEDSAVYYCATVSGYGYYYWGQGTQVTVSS | low polyreactivity
KVQVVESGGGLVQAGGSLRLSCAASGSTFYYNAMGWYTQAPGKERELVAAITGSGTGTNYADSVKGRFTISRDNAKNTVYLQMNSLKPEDTAVYYCAADYVWRGDPINSYLSWYVYWGQGTQVTVSS | low polyreactivity
LVQHVESGGGLVQAGGSLRLNCAASGRTFKPYAMGWYIQSPGKERELVAAISTRGGSTYYADSVKGRFTISRDNAKNSVFLQMNSLKPEDTALFYCAATQPGRDYDYWGQGTQVTVSS | low polyreactivity
LVQLQESGGCLVLAGGGLRLSCAASGNIFTYVIMGWYRQPPGKERELVAAITYGTITNYADSVKGPFTISRDNAKNTVYMQMNCLKPEDTAVYHCAVQSPRIEPRLYYWGQGTQVTVSS | high polyreactivity
LVQLQESGGGLVQAGGSLRLSCAASGTNSPGGYMGWYRKAPGKERELVASINVGGSTNYADSVKGRFTISRDNAKNTVYLQMNSLKPEDNAVYFCAVWGRNRLQLSYWGQGTQVTVSS | low polyreactivity
LVQLQESGGGLVQPGGRLRLSCAASGTISPGGYMGWYRQAPGKERELVASINVGGRTNYADSVKGRFTISRDNAKNTVYLQMNSLKPEDNAVSYCAVWGRNRLQLSYWGQGTQVTVSS | low polyreactivity

Sequence | polyreactivity (PSR sort gate)
LVQLVESGGGLVQAGGSLRLSCAASGAIFYQDAQGCYRQAPGKERELVAAISKNGRSTYYADSVKGRFTISRDNAKNTVYLQMNSLKPEATAVYYCAARVLKGYYWGQGTQVTVSS | high polyreactivity
LVQLVESGGGLVQAGGSLRLSCAASGRIIPPNAMGWYRQAPGTERELVATITWGVGSTYYADSVKGRFTISRDNAKNTVYLQMNSLKPEDTAVYYCYARRFRPYGFYYWGQGTQVTVSS | high polyreactivity
LVQLVESGGGLVQAGGSLRLSCAASGRTFPGYAMGGYSQAPGKERELVASINFRGGGTYADSVKGRFTISRDNAKNTVYLLMNSLKPEDTAVYYCAAEYFWGKRRFGYWGQGTQVTVSS | high polyreactivity
LVQLVESGGGLVQAGGSLRLSCAASGSIFPPYAMGWYRQAPGKERELVAARSNGGSTNYAYAVKGRFTISRDNPNYTVYLQMNSLIPEDTAVYYCVARQYYLGWFPYWRIFDYWGQGTQVTVSS | high polyreactivity
LVQLVESGGGLVQAGGSLRLSCAASGSIFSVYAMGWYRQAPGKERELVAAITWRGGNTYYADSVKGRFTLSRDNAKNTVYLQMNSLKPEDTAVYYCNRVYRQRLGRDYWGQGTQVTVSS | high polyreactivity
LVQLVESGGGLVQAGGSLRLSCAASGSTFIPYAMGWYRQAPGKERELVAAIRGGDGSTYYADSVKGRFTISRDNAKNTVYLQMNSLKPEDTAVYYCAADTVITAYFYRFWRYNYWGQGTQVTVSS | low polyreactivity
LVQLVESGGGLVQAGGSLRVSCAASGLIIYDNAMGGYRQAPGKEREVVATISSGGRTYYADSVKGRFTISRDNAKNTVYLQMNSLKPEDTAVYYCAVDPGYSWYAQYDYWGQGTQVTVSS | low polyreactivity
LVQVVESGGGLVQAGCSLRLSCAASGRTFGVYAMGWYRQAPGKEWELVASISRSGGSTYYADSLKGRFTISRDNAKNTVYLQMNSLIPEDTAVYYCAAVYKRGMDYWGQGTQVTVSS | high polyreactivity
PLQLVESGGGLVQAGGSLRLSCAASGRIFGTYAMGWYRQAPGKERELVAAITLSDGSTYYADSVKGRFTISRDNAKNTVYLEMNSLIPDDTAVYYCAAVVDRFHPGLYEYWGQGTQVTVSS | low polyreactivity
PLQLVESGGGLVQAGGSLRLSCAASGTIFVQTDRGWYRQAPGKERELVAAISSGSSTNYADSVNGRFTISRDNAKNTVYLQMNSLKPEDSAAYYCAVTSPYSQGYSYWGADSRDYWGQGTQVTVSS | low polyreactivity
PVQIVESGGVLDQAGGSLRLSCAASGSIFTRNTMGWYRQAPRKERELVAAISQRGGSTYYADSVKGRFTISRDNAKNTVYLQMNSLIPEDTAVYFCAADFSFGYYWYGYWGQGTQVTVSS | high polyreactivity
PVQLQESGGGLMQAGGNLRLSCAASGYISTHYDMDWYRQAPGKERELVARIDDGAITNYADSVKGRFTISRDNAKNTVYLQMNSLKPEDTAVYYCAVYSGDDYYHDYWGQGTQVTVSS | low polyreactivity
PVQLVDSGGGLVQAGGSLRLSCGASGRTFRKYGIGWYRQAAGKERELVAGISRSGGTTYYADTVKGRFTISRDTAKNTVYLQMNSLKPEDTAVYYCAKRTGPSGEDYWGQGTQVTVSS | high polyreactivity
PVQLVESGGGLGQAGGSLRLSCAASGSTFLYSAMGWYRPAPGKERELVAGISASGGSSYYADSVKGRFTISRDYAKNTVYLQMNSLKPEDTAVYYCNATRVVIRHSYDYWGQGTQVTVSS | high polyreactivity
PVQLVESGGGLVQAGGRLLLICAASGSIFTPKAMGWYRQAPGKERELVAAITSRGGSTYYADSVKGRFTISRDNAKNTFYLQMNSLKPEDTAVYYCASKPHSSKYDYWGQGTQVTVSS | low polyreactivity
PVQLVESGGGLVQAGGSHRLSCAASGITFGVYPMGWYRQAAGKERELVAAISRRGASTYYADSVKGRFTISRDKAKNSVYLQMNSLKPEDTAVYYCAAYLARRQYDYWGQGTQVTVSS | high polyreactivity
PVQLVESGGGLVQAGGSLLLSCAASGRIFSRNAMGWNIQAPGKERELVAAISRSGTSTYYADSVKGRFTSSRDNAKNTVYLQMNSLKPEETAVYYCAADYPAVISIRRYDYWGQGTQLTVSS | low polyreactivity
PVQLVESGGGLVQAGGSLRISCAASGSIFRVNAMGWYRQAPGKERELVAAITTNGGSTYYADSVKGRFTISRDNAKNTVYLQMNSLKPEDTAVYYCAADYSLPWSWLYEYWGQGTQVTVSS | low polyreactivity
PVQLVESGGGLVQAGGSLRLICAASGRIFLPYAMGWYRQAPGKERELVASITRRGGTTYYADSVKGRFTLSRDYAKNTDYLQLNSLKTEDTSVYYCAADSGYRLQSYGYWGQGTQVTVSS | high polyreactivity
PVQLVESGGGLVQAGGSLRLICAASGSIFYQYTMGWYRQAPGKERELVATISWSDVSTYYADSVKGRFTISRENAQNPVYLQMNSLKPEDTSVYYCAALYSGWDRYYGYDYWGQGTQVTVSS | low polyreactivity
